# Laboratory results as given in patent publication US20230303701A1 (ABEXXA BIOLOGICS, published 2023).
# Read-outs that look alike come from different tables or passages of the source.
# B1: ABX0011 (antibody, V domains shown)
# VH: EVQLLESGGGLVQPGGSLRLSCAASGFTFSSYAMSWVRQAPGKGLEWVSTIAYGGGATAYADSVKGRFTISRDNSKNTLYLQMNSLRAEDTAVYYCAKGLSNFDYWGQGTLVTVSS
# VL: DIQMTQSPSSLSASVGDRVTITCRASQSISSYLNWYQQKPGKAPKLLIYAASSLQSGVPSRFSGSGSGTDFTLTISSLQPEDFATYYCQQAAAYPSLFGQGTKVEIK
# notes: also called ABX-11; R2-C02 as hIgG1
# B2: ABX0012 (ABX0011 with mouse IgG1) (antibody, V domains shown)
# VH: EVQLLESGGGLVQPGGSLRLSCAASGFTFSSYAMSWVRQAPGKGLEWVSTIAYGGGATAYADSVKGRFTISRDNSKNTLYLQMNSLRAEDTAVYYCAKGLSNFDYWGQGTLVTVSS
# VL: DIQMTQSPSSLSASVGDRVTITCRASQSISSYLNWYQQKPGKAPKLLIYAASSLQSGVPSRFSGSGSGTDFTLTISSLQPEDFATYYCQQAAAYPSLFGQGTKVEIKR
# notes: also called ABX012; AB0012
# Assays:
# [1] = target: HLA-E/… (V-0025, HLA-G signal peptide) complex on cells (human) (UniProt P13747); experiment: flow cytometry, K562.E +V-0025, column 0 µg/mL +mIgG1
# [2] = target: HLA-E on cells that do not present the HLA-G signal peptide (unpulsed K562.E cells; HLA-E positive, HLA-G negative cells; Tap-1 knock-out cells) (human) (UniProt P13747); experiment: flow cytometry, K562.E, column 0 µg/mL +mIgG1
# [3] = target: V-0025 (…, HLA-G signal peptide)/HLA-E*0103 monomer complex (human); experiment: ELISA, V-0025 at 0.25 µg/mL, antibody titrated from 2 µg/mL to 3.8 pg/mL
# [4] = target: V-0021 (…)/HLA-E 01:03 monomer complex (human); experiment: ELISA, monomer at 0.25 ug/ml on neutravidin plate (FIG. 9B)
# [5] = target: V-0035 (…)/HLA-E 01:03 monomer complex (human); experiment: as above
# [6] = target: V-0041 (…)/HLA-E 01:03 monomer complex (human); experiment: as above
# [7] = target: V-0038 (…, Hsp60)/HLA-E 01:03 monomer complex (human); experiment: as above
# [8] = target: V-0042 (…)/HLA-E 01:03 monomer complex (human); experiment: as above
# [9] = target: V-0045 (…)/HLA-E 01:03 monomer complex (human); experiment: as above
# [10] = target: V-0044 (…)/HLA-E 01:03 monomer complex (human); experiment: as above
# [11] = target: P-0550 (…, PODXL2)/HLA-E 01:03 monomer complex (human); experiment: as above
# [12] = target: V-0040 (…)/HLA-E 01:03 monomer complex (human); experiment: as above
# [13] = target: V-0046 (…)/HLA-E 01:03 monomer complex (human); experiment: as above
# [14] = target: T1, V-0025 (…, HLA-G signal peptide)/HLA-E*0103 monomer complex (human); experiment: ELISA, V-0025 at 0.25 µg/mL, antibody titrated from 2 µg/mL to 3.8 pg/mL
# T1 construct: also called ABI-V-0025; 0025-E 01:03 monomer complex
# [15] = target: T2, V-0034 (…) pulsed on K562 cells expressing HLA-E (human, UniProt P13747 22-358; P61769 21-119); experiment: flow cytometry, ABX0011 staining with Fc block, K562.E cells pulsed with 20 ug/mL peptide for 2hr
# [16] = target: T3, P-0550 (…, PODXL2) pulsed on K562 cells expressing HLA-E (human, UniProt P13747 22-358; P61769 21-119); experiment: as above
# [17] = target: T4, HLA-E/… (V-0025, HLA-G signal peptide) complex on cells (human, UniProt P13747 22-358; P61769 21-119); experiment: as above
# T4 construct: also called K562.E + V-0025; V-0025 peptide pulsed K562 cells expressing HLA-E
# [18] = target: V-0034 (…)/HLA-E 01:03 monomer complex (human); experiment: ELISA, monomers on a neutravidin plate
# [19] = target: V-0037 (…)/HLA-E 01:03 monomer complex (human); experiment: ELISA, monomers on a neutravidin plate
# [20] = target: V-0043 (…)/HLA-E 01:03 monomer complex (human); experiment: ELISA, monomers on a neutravidin plate
# [21] = target: T5, HLA-G on cell lines that express HLA-G but not HLA-E (human, UniProt P17693 25-338); experiment: flow cytometry, IFNγ-stimulated JEG3 HLA-E knock-out
# T5 construct: whole, on cells
# peptide-empty HLA-E = peptide-empty HLA-E (human); experiment: ELISA, ABX0011 in mouse serum, HLA-E 01:03 monomers
# [22] = target: T1, V-0025 (…, HLA-G signal …); experiment: label-free ResoSens instrument; ABX0011 captured by anti-IgG-Fc, monomer complex in serial dilutions from 5 µg/ml; monovalent
# [23] = target: V-0021 (…) pulsed on K562 cells expressing HLA-E (human, UniProt P13747 22-358; P61769 21-119); experiment: flow cytometry, peptide-pulsed K562.E cells, antibody molecules per cell
# [24] = target: V-0046 (…) pulsed on K562 cells expressing HLA-E (human, UniProt P13747 22-358; P61769 21-119); experiment: as above
# [25] = target: T2, V-0034 (…) pulsed on K562 cells …; experiment: as above
# [26] = target: V-0041 (…) pulsed on K562 cells expressing HLA-E (human, UniProt P13747 22-358; P61769 21-119); experiment: as above
# [27] = target: V-0042 (…) pulsed on K562 cells expressing HLA-E (human, UniProt P13747 22-358; P61769 21-119); experiment: as above
# [28] = target: V-0040 (…) pulsed on K562 cells expressing HLA-E (human, UniProt P13747 22-358; P61769 21-119); experiment: as above
# [29] = target: V-0037 (…) pulsed on K562 cells expressing HLA-E (human, UniProt P13747 22-358; P61769 21-119); experiment: as above
# [30] = target: V-0043 (…) pulsed on K562 cells expressing HLA-E (human, UniProt P13747 22-358; P61769 21-119); experiment: as above
# [31] = target: V-0038 (…, Hsp60) pulsed on K562 cells expressing HLA-E (human, UniProt P13747 22-358; P61769 21-119); experiment: as above
# [32] = target: T3, P-0550 (…, PODXL2) pulsed on K562 cells …; experiment: as above
# [33] = target: V-0044 (…) pulsed on K562 cells expressing HLA-E (human, UniProt P13747 22-358; P61769 21-119); experiment: as above
# [34] = target: V-0035 (…) pulsed on K562 cells expressing HLA-E (human, UniProt P13747 22-358; P61769 21-119); experiment: as above
# [35] = target: V-0045 (…) pulsed on K562 cells expressing HLA-E (human, UniProt P13747 22-358; P61769 21-119); experiment: as above
# [36] = target: T5, HLA-G on cell lines that express HLA-G …; experiment: flow cytometry, JEG3 stimulated with IFNγ (FIG. 25A of the legend)
# Chain of HLA-E on cells that do not present the HLA-G signal peptide (unpulsed K562.E cells; HLA-E positive, HLA-G negative cells; Tap-1 knock-out cells) (human) (P13747 22-358): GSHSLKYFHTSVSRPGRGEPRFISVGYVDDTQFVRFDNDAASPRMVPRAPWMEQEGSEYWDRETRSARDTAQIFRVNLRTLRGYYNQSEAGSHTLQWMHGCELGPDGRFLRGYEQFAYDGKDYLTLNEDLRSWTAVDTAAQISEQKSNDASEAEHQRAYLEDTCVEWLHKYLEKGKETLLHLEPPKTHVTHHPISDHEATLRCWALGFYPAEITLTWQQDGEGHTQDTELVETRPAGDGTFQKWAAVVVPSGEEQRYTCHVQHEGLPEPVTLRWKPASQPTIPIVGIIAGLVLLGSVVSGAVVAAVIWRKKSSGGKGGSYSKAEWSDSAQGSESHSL
molecule,measurement,setting,value
mIgG1 (antibody),"% of cells in Q3 (HLA-E channel +, Fab-scFv-Fc -)",[1],0.37
same,"% of cells in Q3 (HLA-E channel +, Fab-scFv-Fc -)",[2],0.39
anti-HLA-E antibody clone 3D12,EC50 (read off the curve),[3],7 ng/mL
B1,binding result,[4],no binding (tested: 1 ug/ml)
same,binding result,[5],no binding (tested: 1 ug/ml)
same,binding result,[6],no binding (tested: 1 ug/ml)
same,binding result,[7],no binding (tested: 1 ug/ml)
same,binding result,[8],no binding (tested: 1 ug/ml)
same,binding result,[9],no binding (tested: 1 ug/ml)
same,binding result,[10],no binding (tested: 1 ug/ml)
same,binding result,[11],no binding (tested: 1 ug/ml)
same,binding result,[12],no binding (tested: 1 ug/ml)
same,binding result,[13],no binding (tested: 1 ug/ml)
same,EC50 (read off the curve),[14],~1 ng/mL
same,binding result,[15],no binding (tested: 10 µg/mL)
same,binding result,[16],no binding (tested: 10 µg/mL)
same,EC50 (read off the curve),[17],~50 ng/mL
same,binding result,[18],no binding (tested: 1 ug/ml)
same,binding result,[19],no binding (tested: 1 ug/ml)
same,binding result,[20],no binding (tested: 1 ug/ml)
same,binding result,[21],no binding (tested: 1 µg/mL)
same,binding result,peptide-empty HLA-E,no binding (tested: 1 µg/ml)
same,Kd,[22],7.9 nM
B2,binding result,[23],no binding
same,binding result,[24],no binding
same,binding result,[25],no binding
same,binding result,[26],no binding
same,binding result,[27],no binding
same,binding result,[28],no binding
same,binding result,[29],no binding
same,binding result,[30],no binding
same,binding result,[31],no binding
same,binding result,[32],no binding
same,binding result,[33],no binding
same,binding result,[34],no binding
same,binding result,[35],no binding
same,binding result,[36],no binding
